The target of data set [1] is T1, GST-TR4 fusion protein (human, UniProt P49116 1-596).
T1 construct: also called pGEX-3X-TR4
T1 sequence: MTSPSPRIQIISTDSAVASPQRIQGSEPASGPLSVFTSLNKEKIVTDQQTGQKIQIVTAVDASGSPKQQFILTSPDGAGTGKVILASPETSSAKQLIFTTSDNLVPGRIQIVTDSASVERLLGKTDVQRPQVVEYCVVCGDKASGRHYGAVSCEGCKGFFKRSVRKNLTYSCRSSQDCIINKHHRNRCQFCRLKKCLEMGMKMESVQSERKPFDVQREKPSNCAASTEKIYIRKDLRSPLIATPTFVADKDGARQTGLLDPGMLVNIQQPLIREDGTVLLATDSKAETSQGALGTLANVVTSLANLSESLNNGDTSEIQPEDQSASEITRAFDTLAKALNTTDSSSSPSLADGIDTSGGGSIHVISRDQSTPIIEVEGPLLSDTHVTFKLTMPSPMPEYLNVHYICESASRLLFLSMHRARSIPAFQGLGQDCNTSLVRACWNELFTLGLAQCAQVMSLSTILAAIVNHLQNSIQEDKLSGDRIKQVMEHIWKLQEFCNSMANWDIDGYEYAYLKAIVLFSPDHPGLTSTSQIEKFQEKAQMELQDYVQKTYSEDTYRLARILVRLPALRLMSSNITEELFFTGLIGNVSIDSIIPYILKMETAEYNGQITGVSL
The data set is described as follows: GST pull-down, GST-TR4 on beads, 35S-labeled RXRα.

In data set [2] the target is T2, TR2 orphan receptor (full length, 603 aa) (UniProt P13056 SEQ:1-603).
T2 chain: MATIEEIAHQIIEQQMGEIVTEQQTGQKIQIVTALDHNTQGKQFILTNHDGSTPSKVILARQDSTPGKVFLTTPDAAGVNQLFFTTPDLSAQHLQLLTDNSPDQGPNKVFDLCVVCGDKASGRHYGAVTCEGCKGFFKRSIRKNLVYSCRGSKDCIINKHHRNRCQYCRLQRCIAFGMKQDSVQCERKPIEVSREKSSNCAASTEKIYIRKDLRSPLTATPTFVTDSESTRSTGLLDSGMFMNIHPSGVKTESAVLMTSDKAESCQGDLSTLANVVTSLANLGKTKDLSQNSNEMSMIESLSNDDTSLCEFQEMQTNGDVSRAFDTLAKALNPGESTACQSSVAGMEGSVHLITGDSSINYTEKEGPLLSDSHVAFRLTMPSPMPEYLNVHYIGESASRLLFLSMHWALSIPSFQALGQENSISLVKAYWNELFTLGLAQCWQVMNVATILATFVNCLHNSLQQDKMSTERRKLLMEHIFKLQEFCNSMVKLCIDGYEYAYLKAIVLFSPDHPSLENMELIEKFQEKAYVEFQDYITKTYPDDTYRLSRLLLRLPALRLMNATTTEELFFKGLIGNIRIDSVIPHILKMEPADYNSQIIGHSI
The data set is described as follows: EMSA; no TR2-ERE band. To be noted: chain copies: 2; label: 32P. On the technique in general: In EMSA bound probe runs differently from free probe, usually more slowly.

For data set [3], the target named is T3, Estrogen receptor alpha (ER) (Homo sapiens, UniProt P03372 SEQ:1-595).
T3 chain: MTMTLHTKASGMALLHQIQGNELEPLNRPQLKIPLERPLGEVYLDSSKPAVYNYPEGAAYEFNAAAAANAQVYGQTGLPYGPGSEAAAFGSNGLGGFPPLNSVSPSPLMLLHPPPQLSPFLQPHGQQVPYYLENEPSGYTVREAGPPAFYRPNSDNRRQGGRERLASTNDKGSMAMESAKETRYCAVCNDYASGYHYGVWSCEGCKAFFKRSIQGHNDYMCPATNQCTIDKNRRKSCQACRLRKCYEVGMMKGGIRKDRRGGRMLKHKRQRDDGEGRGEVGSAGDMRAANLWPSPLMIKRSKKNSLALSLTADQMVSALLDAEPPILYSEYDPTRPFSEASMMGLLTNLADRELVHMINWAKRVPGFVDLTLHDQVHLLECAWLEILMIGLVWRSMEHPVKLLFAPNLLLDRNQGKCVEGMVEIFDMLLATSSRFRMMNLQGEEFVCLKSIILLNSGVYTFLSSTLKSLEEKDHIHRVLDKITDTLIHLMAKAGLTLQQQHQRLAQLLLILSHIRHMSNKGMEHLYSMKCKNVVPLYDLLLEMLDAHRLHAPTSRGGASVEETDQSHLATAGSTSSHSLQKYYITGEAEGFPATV
The data set can be described thus: EMSA; with or without E2; supershifted by C-314; competed by 100-fold cold ERE; decreased by added TR2. The note with it: chain copies: 2; label: 32P.

For data set [4], the target named is T4, estrogen receptor (ER), full-length (human, UniProt P03372 1-595).
T4 construct: 35S-labeled when in vitro translated for the pull-downs; endogenous in MCF7 cells for the co-immunoprecipitation; also called ERα; pSG5-ER
T4 sequence: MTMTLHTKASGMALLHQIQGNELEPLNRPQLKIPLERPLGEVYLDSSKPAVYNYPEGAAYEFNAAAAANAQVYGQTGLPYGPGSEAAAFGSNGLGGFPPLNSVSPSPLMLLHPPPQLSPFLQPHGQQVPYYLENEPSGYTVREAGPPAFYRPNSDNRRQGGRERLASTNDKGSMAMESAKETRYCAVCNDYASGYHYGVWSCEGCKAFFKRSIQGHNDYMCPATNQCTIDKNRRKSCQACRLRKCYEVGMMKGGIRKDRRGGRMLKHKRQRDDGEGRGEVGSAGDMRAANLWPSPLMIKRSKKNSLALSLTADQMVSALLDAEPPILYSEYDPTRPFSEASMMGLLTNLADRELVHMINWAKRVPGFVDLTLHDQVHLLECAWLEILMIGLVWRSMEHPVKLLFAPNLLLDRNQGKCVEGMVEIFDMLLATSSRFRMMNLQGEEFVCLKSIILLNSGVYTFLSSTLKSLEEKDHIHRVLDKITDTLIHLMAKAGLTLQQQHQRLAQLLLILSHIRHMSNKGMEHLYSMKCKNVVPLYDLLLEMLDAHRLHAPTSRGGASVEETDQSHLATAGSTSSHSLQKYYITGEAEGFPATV
The data set can be described thus: GST pull-down, GST-TR2 fragment on beads, [35S]-ER.

B1: retinoid X receptor alpha (RXRα) (receptor, UniProt P19793 1-462, looked up)
chain: MDTKHFLPLDFSTQVNSSLTSPTGRGSMAAPSLHPSLGPGIGSPGQLHSPISTLSSPINGMGPPFSVISSPMGPHSMSVPTTPTLGFSTGSPQLSSPMNPVSSSEDIKPPLGLNGVLKVPAHPSGNMASFTKHICAICGDRSSGKHYGVYSCEGCKGFFKRTVRKDLTYTCRDNKDCLIDKRQRNRCQYCRYQKCLAMGMKREAVQEERQRGKDRNENEVESTSSANEDMPVERILEAELAVEPKTETYVEANMGLNPSSPNDPVTNICQAADKQLFTLVEWAKRIPHFSELPLDDQVILLRAGWNELLIASFSHRSIAVKDGILLATGLHVHRNSAHSAGVGAIFDRVLTELVSKMRDMQMDKTELGCLRAIVLFNPDSKGLSNPAEVEALREKVYASLEAYCKHKYPEQPGRFAKLLLRLPALRSIGLKCLEHLFFFKLIGDTPIDTFLMEMLEAPHQMT
notes: 35S-methionine-labeled, in vitro translated; also called RXRa; RXRA
Consider B1, for which, in data set [1], the binding result was “no binding”.

B2: complement C3 ERE (dsDNA)
DNA 1: AGGTGGCCCTGACCC
DNA 2: GGGTCAGGGCCACCT
With B2, the binding result in data set [2] was “no binding”; in data set [3], “binds”.

B3: GST-TR2-#1 (N-terminus, aa 1-112 of TR2) (other)
chain: MATIEEIAHQIIEQQMGEIVTEQQTGQKIQIVTALDHNTQGKQFILTNHDGSTPSKVILARQDSTPGKVFLTTPDAAGVNQLFFTTPDLSAQHLQLLTDNSPDQGPNKVFDL
notes: also called pGEX-KG-TR2-#1; not shown: GST carrier of pGEX-KG and its linker
Consider B3, for which, in data set [4], the binding result was “no binding”.

Source of the values: US20030235860A1, “Interactions between AR, ER, TR2, and TR4” (priority 1999, published 2003).
